According to patent publication US20210206861A1:

What was measured:
[1] = target: IL-4R-ECD-FLAG (human) (UniProt P24394); test: SPR, Biacore T200; antibody captured on Protein A/G CM5 chip, IL-4R-ECD-FLAG injected
[2] = target: IL-4R-ECD-FLAG (human) (UniProt P24394); test: ELISA on coated IL-4R-ECD-FLAG (100 ng/ml), HRP goat anti-human secondary
[3] = target: Biotinated IL-4R-ECD-hFc (human) (UniProt P24394); test: blocking ELISA: coated IL-4-hFc (2000 ng/ml), biotinylated IL-4R-ECD-hFc (100 ng/ml) with antibody in dilution series, Streptavidin-HRP

B1: Dupilumab (antibody, INN chains, looked up, V domains shown)
VH: EVQLVESGGGLEQPGGSLRLSCAGSGFTFRDYAMTWVRQAPGKGLEWVSSISGSGGNTYYADSVKGRFTISRDNSKNTLYLQMNSLRAEDTAVYYCAKDRLSITIRPRYYGLDVWGQGTTVTVSS
VL: DIVMTQSPLSLPVTPGEPASISCRSSQSLLYSIGYNYLDWYLQKSGQSPQLLIYLGSNRASGVPDRFSGSGSGTDFTLKISRVEAEDVGFYYCMQALQTPYTFGQGTKLEIKR
Kd [1]: 0.671 nM
koff [1]: 3.95e-05 s⁻¹
kon [1]: 58800 M⁻¹ s⁻¹
EC50 [2]: 0.0125 µg/mL
IC50 [3]: 0.138 µg/mL
